From paper doi:10.1101/2021.04.19.440493 come the findings set out here.

Test [1] concerns the target α-domain of Ag43a from UPEC CFT073 (α^43a) (E. coli CFT073 (UPEC)). The test can be described thus: AUC.
Test [2] shares this target. Put plainly: small-angle X-ray scattering.
In test [3] the target is α-domain of Ag43 from UPEC UTI89 (α^43_UTI89) (E. coli O18:K1:H7 UTI89 (UPEC)). The test can be described thus: AUC.
Test [4] shares this target. The test can be described thus: small-angle X-ray scattering.

As a reminder, the stoichiometry N is a count of units in the complex or per binding partner. As to “α-domain of Ag43a from UPEC CFT073 (α^43a) (domain or fragment)”, the stoichiometry N in test [1] and in test [2] was 2 in each case.

Turning to “α-domain of Ag43 from UPEC UTI89 (α^43_UTI89) (domain or fragment)”, the stoichiometry N in test [3] and in test [4] was 2 throughout.
